B1: AdC68-Hexon单克隆抗体 (hybridoma-derived, purified from mouse ascites) (antibody, V domains shown)
VH: EVQLVETGGGLVQPKGSLKLSCAVSGLPFNTKAMDWVRQAPGEGLEWVARIRTKSNNYATYYADSVKDRFTISRDDAQSMLYLQMTNLKTEDTAMYYCVRDEASWGHGTLVTVSA
VL: DIVMTQIPLSLPVSLGDQASISCRSSQSLVHSDGNTYLHWYLQKPGQSPKLLIYKVSNRFSGVPDRFSGSGSGTDFTLKISRVEAEDLGVYFCSQSTHFPWTFGGGTKLEIK
notes: Mouse IgG1 (all positive hybridomas were IgG1); also called 抗AdC68-Hexon单克隆抗体; 亲本鼠源抗体
B2: 重组抗AdC68-Hexon小鼠单克隆抗体 (antibody, V domains shown)
VH: B1 VH
VL: DIVMTQIPLSLPVSLGDQASISCRSSQSLVHSDGNTYLHWYLQKPGQSPKLLIYKVSNRFSGVPDRFSGSGSGTDFTLKISRVEAEDLGVYFCSQSTHFPWTFGGGTKLEIKR
notes: domain: 小鼠IgGκ轻链恒定区; Expressed in HEK293, assembled as IgG1k, Protein A purified; also called 重组单克隆抗体; 重组抗AdC68-Hexon鼠单克隆抗体; not shown: mouse IgG1 heavy chain constant region (IgG1CH, GenBank No. NC_000078.7, a genomic entry)

Legend:
[1] = target: T1, 野生型人5型腺病毒的Hexon蛋白 (人5型腺病毒 (human adenovirus type 5), UniProt P04133 2-952); assay: Western blot, reduced virus lysate
T1 construct: also called 野生型人腺病毒5型
T1 sequence (P04133 2-952): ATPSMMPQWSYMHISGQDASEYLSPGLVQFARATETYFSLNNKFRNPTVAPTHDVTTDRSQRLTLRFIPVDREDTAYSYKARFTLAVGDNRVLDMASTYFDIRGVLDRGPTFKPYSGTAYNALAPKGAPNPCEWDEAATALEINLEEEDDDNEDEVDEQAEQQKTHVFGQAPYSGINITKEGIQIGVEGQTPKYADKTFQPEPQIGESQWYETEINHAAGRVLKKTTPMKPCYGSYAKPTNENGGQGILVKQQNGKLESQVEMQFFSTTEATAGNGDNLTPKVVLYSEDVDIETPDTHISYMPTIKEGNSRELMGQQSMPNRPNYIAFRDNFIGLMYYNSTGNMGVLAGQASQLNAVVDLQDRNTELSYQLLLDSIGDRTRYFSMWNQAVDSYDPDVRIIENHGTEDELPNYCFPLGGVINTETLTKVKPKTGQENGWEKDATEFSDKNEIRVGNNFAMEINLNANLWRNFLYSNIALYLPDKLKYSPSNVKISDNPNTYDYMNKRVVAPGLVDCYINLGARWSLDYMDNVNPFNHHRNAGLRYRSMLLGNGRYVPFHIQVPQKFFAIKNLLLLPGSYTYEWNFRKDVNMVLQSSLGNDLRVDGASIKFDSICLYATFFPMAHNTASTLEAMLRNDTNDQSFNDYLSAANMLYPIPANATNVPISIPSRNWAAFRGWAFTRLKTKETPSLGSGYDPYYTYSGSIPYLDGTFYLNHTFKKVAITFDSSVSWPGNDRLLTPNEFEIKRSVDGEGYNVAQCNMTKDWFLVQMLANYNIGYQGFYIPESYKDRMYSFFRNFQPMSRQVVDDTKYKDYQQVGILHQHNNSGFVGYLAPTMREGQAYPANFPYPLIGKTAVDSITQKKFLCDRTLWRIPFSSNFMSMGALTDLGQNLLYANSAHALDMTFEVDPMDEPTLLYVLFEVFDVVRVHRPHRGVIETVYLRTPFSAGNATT

[2] = target: T1, 野生型人5型腺病毒的Hexon蛋白; assay: cell immunostaining of virus-infected 293A cells

| Binder | binding result [1] | binding result [2] |
| --- | --- | --- |
| B1 | no binding (tested: antibody diluted 1:10000) | – |
| B2 | – | no binding |

Source: patent publication CN116496388A (BRAVOVAX CO LTD; SHANGHAI BOWO BIOTECHNOLOGY CO LTD, dated 2023)
